Assay results published in publication PMC6326798.
Changes are numbered by the printed parent chain. Names and notes keep the numbering of the source.

T1: GST-thCENP-K^FL (full-length T. terrestris CENP-K with N-terminal GST)
T1 chain: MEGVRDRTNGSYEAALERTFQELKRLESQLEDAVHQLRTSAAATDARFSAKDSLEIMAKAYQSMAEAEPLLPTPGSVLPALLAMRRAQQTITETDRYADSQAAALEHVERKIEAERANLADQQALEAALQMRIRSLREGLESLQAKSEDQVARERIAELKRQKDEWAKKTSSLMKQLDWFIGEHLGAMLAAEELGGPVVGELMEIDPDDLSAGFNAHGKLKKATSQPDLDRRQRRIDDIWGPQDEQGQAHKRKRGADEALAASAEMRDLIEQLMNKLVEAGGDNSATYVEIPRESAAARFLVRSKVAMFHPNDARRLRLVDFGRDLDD

T2: GST-thCENP-K^ΔN75
T2 chain: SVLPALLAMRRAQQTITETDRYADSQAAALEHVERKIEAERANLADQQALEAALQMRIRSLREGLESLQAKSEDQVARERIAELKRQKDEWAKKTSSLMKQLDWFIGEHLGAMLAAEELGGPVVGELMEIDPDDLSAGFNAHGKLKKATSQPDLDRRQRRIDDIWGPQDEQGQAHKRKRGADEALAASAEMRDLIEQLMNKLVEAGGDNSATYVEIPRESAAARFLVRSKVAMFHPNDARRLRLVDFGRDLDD

T3: GST-ctCENP-I^NT
T3 chain: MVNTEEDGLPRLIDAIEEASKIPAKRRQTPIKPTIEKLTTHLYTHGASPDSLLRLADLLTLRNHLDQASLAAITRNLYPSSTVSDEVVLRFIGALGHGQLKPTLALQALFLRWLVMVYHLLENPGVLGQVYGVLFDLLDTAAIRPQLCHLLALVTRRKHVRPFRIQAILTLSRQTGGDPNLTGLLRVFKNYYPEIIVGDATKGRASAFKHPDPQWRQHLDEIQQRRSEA

B1: full-length T. terrestris CENP-H (thCENP-H) L219A (protein)
chain: MAATASTATPTPLPHFTEREASVLALYDRLRQLQLELALLTSQRSHGVIETSASRRAENDLAVDEARLLEARATLDLRDSVVENVVTLQPILNAVHHATHASPLERDLLPYTEQRDATATKVASLCADLDSAWGRLAELETESLRATQRNMELASEVLRLAAGTNDKTPSQLEGGRLEMELAGHEAEMKSNRRRWRIMKGAASAIVAGSGIDWVRDERARDLVLDLPD
B2: full-length T. terrestris CENP-H (thCENP-H) I205A (protein)
chain: B1 chain with I205A, A219L
B3: full-length T. terrestris CENP-H (thCENP-H) I205A; L219A (protein)
chain: B1 chain with I205A
B4: full-length T. terrestris CENP-H (thCENP-H) I211A (protein)
chain: B1 chain with I211A, A219L
B5: full-length T. terrestris CENP-H (thCENP-H) W213A (protein)
chain: B1 chain with W213A, A219L
B6: full-length T. terrestris CENP-H (thCENP-H) I205A; I211A (protein)
chain: B1 chain with I205A, I211A, A219L
B7: full-length T. terrestris CENP-H (thCENP-H) R220E (protein)
chain: B1 chain with A219L, R220E
B8: full-length T. terrestris CENP-H (thCENP-H) I211A; L219A (protein)
chain: B1 chain with I211A
B9: full-length T. terrestris CENP-H (thCENP-H) R220E; L224A (protein)
chain: B1 chain with A219L, R220E, L224A
B10: full-length T. terrestris CENP-H (thCENP-H) L224A (protein)
chain: B1 chain with A219L, L224A

Biological target: T1, GST-thCENP-K^FL (full-length T. …)
Experiment: GST pull-down
Settings: chain shown with the change;; parent: est. 1.0; read off a plot

ratio to parent | Molecule
0.89 | B1
0.94 | B2
0.9 | B3
0.95 | B4
0.97 | B5
0.88 | B6
0.97 | B7

Biological target: T2, GST-thCENP-K^ΔN75
Experiment: GST pull-down
Settings: chain shown with the change;; parent: est. 1.0; read off a plot

ratio to parent | Molecule
0.68 | B1
0.65 | B2
0.36 | B3
0.7 | B4
0.46 | B8
1.1 | B9
0.33 | B6
1.1 | B10
1.1 | B7

Biological target: T3, GST-ctCENP-I^NT
Experiment: GST pull-down
Settings: chain shown with the change;; parent: est. 1.0; read off a plot

ratio to parent | Molecule
1.1 | B2
1.1 | B3
1.2 | B4
1.2 | B5
1.2 | B8
0.13 | B9
1.1 | B6
0.36 | B10
0.32 | B7

Biological target: thCENP-H/K complex (full-length thCENP-H with full-length thCENP-K) (Thielavia terrestris)
Experiment: AUC; sedimentation velocity, 4°C, 42 000 rpm, PBS; continuous c(s) model in SEDFIT
Settings: not given

stoichiometry N | Molecule
1 | C. thermophilum CENP-I residues 1-229 (ctCENP-I^NT), untagged (domain or fragment)

Biological target: full-length T. terrestris CENP-K (thCENP-K) (Thielavia terrestris)
Experiment: as above
Settings: not given

stoichiometry N | Molecule
1 | full-length T. terrestris CENP-H (thCENP-H) (natural protein)

Biological target: C. thermophilum CENP-I residues 1-229 (ctCENP-I^NT), untagged
Experiment: GST pull-down
Settings: in the presence of thCENP-K; parent: est. 1.0; read off a plot

ratio to parent | Molecule
0.63 | GST-thCENP-H WT I205A; L219A
0.2 | GST-thCENP-H WT R220E; L224A
